Where no end group is shown, it is not given here.
Assays:
[1] = target: T1, leucine zipper-based CAR (ZipR-CAR), e.g. EE12RR345L:CD28zeta; experiment: co-expression in T cells (FIG. 8)
T1 construct: Used where the text speaks of 'the ZipR-CAR' without naming the spacer; Expressed on T cells; also called leucine zipper receptor-based CAR; EE-CAR

[2] = target: T2, membrane-bound leucine zipper (EE12RR345L); experiment: both co-transduced into the same cell; affinity tag detected on the cell surface by flow cytometry
T2 construct: Expressed on the surface of the transduced cell; not shown: spacer, transmembrane and any intracellular part of the construct of this experiment are not specified

B1: IL-3 zipperkine (IL-3 cytokine with C-terminal FLAG-tag and RR12EE345L leucine zipper) (ligand)
chain: ASISGRDTHRLTRTLNCSSIVKEIIGKLPEPELKTDDEGPSLRNKSFRRVNLSKFVESQGEVDPEDRYVIKSNLQKLNCCLPTSANDSALPGVFIRDLDDFRKKLRFYMVHLNDLETVLTSRPPQPASGSVSPNRGTVECGSGDYKDDDDKLEIRAAFLRQRNTALRTEVAELEQEVQRLENEVSQYETRYGPLGGGK
binding result [1]: binds

B2: RR12EE345L leucine zipper with a linked affinity tag (peptide, not shown: small tags and cut ends)
chain: LEIRAAFLRQRNTALRTEVAELEQEVQRLENEVSQYETRYGPLGGGK
modifications: not fully specified (N-terminus)
notes: Secreted tagged zipper of the two-vector sorting system
binding result [2]: binds

Source: patent US20210171601A1 (Memorial Sloan Kettering, published 2021)
